Source: patent publication US20160340421A1 (Regeneron, published 2016)
Ends that are not written are not given here. * marks the point of attachment. Biotin = O=C1N[C@H]2[C@H](CS[C@H]2CCCCC(=O)*)N1

Assays:
[1] = target: T1, hGDF8 peptide 8 (52-72), C-terminal biotinylated (human, C-terminal biotin); assay: Luminex peptide beads
T1 construct: also called peptide 8 C-term
T1 peptide: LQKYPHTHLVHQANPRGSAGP
Description: (§1) Fourteen peptides (Table 10) were generated from mature hGDF8 (SEQ ID NO:340). Unmodified peptides, N-terminal biotinylated peptides (N-term), or C-terminal biotinylated peptides (C-term) were used to test and localize antibody binding. Full-length hGDF8, hGDF11 and unmodified peptides were each individually amine-coupled to xMAP® Multi-Analyte COOH Microspheres (or beads). Each of the biotinylated peptides was bound to xMAP® Multi-Analyte LumAvidin Microspheres. Peptide-bound beads suspension were then mixed with an equal volume of blocking buffer (PBS, 1%13SA, 0.05% Tween20, 0.05% Sodium azide) and then distributed into a 96 well filter plate (Millipore, MULTISCREEN® BV). Control and test anti-hGDF8 antibodies, at 2.5 μg/ml were then added to the peptide-bound beads suspension and were allowed to bind to the beads at RT, overnight. The antibody-incubated beads were then washed twice with PBST (PBS+0.05% Tween20) and incubated with either Phycoerythrin (PE) conjugated anti-hFC or PE-conjugated anti-mFC antibodies at RT for 45 min. The beads were washed again and the antibody binding signal to various peptides were detected with either LUMINEX® 100™ or 200™ instruments.

[2] = target: T2, hGDF8 peptide 2 (1-18), C-terminal biotinylated (human, cysteine pairing not given here); assay: Luminex peptide beads
T2 construct: also called peptide 2 C-term
T2 peptide: DFGLDCDEHSTESRCCRY-biotin
Description: as §1

[3] = target: T3, hGDF8 peptide 13 (75-105), C-terminal biotinylated (human, C-terminal biotin); assay: Luminex peptide beads
T3 construct: also called peptide 13 C-term
T3 peptide: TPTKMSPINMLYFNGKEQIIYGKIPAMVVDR
Description: as §1

[4] = target: T4, hGDF8 peptide 5 (48-69), unmodified (human); assay: Luminex peptide beads
T4 peptide: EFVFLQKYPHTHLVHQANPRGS
Description: as §1

[5] = target: T5, hGDF8 peptide 2 (1-18), unmodified (human); assay: Luminex peptide beads
T5 peptide: DFGLDCDEHSTESRCCRY
Description: as §1

[6] = target: T6, hGDF8 peptide 1 (1-14), C-terminal biotinylated (human); assay: Luminex peptide beads
T6 construct: also called peptide 1 C-term
T6 peptide: DFGLDCDEHSTESR-biotin
Description: as §1

[7] = target: T7, hGDF8 peptide 12 (73-90), unmodified (human); assay: Luminex peptide beads
T7 peptide: CCTPTKMSPINMLYFNGK
Description: as §1

[8] = target: T8, hGDF8 peptide 3 (17-42), unmodified (human); assay: Luminex peptide beads
T8 peptide: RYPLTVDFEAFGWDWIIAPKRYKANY
Description: as §1

[9] = target: T9, hGDF8 peptide 11 (65-72), C-terminal biotinylated (human); assay: Luminex peptide beads
T9 construct: also called peptide 11 C-term
T9 peptide: NPRGSAGP-biotin
Description: as §1

[10] = target: T10, hGDF8 peptide 12 (73-90), N-terminal biotinylated (human, cysteine pairing not given here); assay: Luminex peptide beads
T10 construct: also called peptide 12 N-term
T10 peptide: Biotin-CCTPTKMSPINMLYFNGK
Description: as §1

[11] = target: T11, hGDF8 peptide 9 (56-65), C-terminal biotinylated (human); assay: Luminex peptide beads
T11 construct: also called peptide 9 C-term
T11 peptide: PHTHLVHQAN-biotin
Description: as §1

[12] = target: T12, hGDF8 peptide 14 (91-105), N-terminal biotinylated (human); assay: Luminex peptide beads
T12 construct: also called peptide 14 N-term
T12 peptide: Biotin-EQIIYGKIPAMVVDR
Description: as §1

[13] = target: T13, hGDF8 peptide 14 (91-105), C-terminal biotinylated (human); assay: Luminex peptide beads
T13 construct: also called peptide 14 C-term
T13 peptide: EQIIYGKIPAMVVDR-biotin
Description: as §1

[14] = target: T14, hGDF8 peptide 11 (65-72), unmodified (human); assay: Luminex peptide beads
T14 peptide: NPRGSAGP
Description: as §1

[15] = target: T15, hGDF8 peptide 4 (48-65), C-terminal biotinylated (human); assay: Luminex peptide beads
T15 construct: also called peptide 4 C-term
T15 peptide: EFVFLQKYPHTHLVHQAN-biotin
Description: as §1

[16] = target: T16, hGDF8 peptide 5 (48-69), C-terminal biotinylated (human, C-terminal biotin); assay: Luminex peptide beads
T16 construct: also called peptide 5 C-term
T16 peptide: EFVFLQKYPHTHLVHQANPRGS
Description: as §1

[17] = target: T17, hGDF8 peptide 8 (52-72), unmodified (human); assay: Luminex peptide beads
T17 peptide: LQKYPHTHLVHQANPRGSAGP
Description: as §1

[18] = target: T18, hGDF8 peptide 7 (52-65), unmodified (human); assay: Luminex peptide beads
T18 peptide: LQKYPHTHLVHQAN
Description: as §1

[19] = target: T19, hGDF8 peptide 6 (48-72), C-terminal biotinylated (human, C-terminal biotin); assay: Luminex peptide beads
T19 construct: also called peptide 6 C-term
T19 peptide: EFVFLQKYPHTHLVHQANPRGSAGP
Description: as §1

[20] = target: T20, hGDF8 peptide 10 (56-72), unmodified (human); assay: Luminex peptide beads
T20 peptide: PHTHLVHQANPRGSAGP
Description: as §1

[21] = target: T21, hGDF8 peptide 3 (17-42), C-terminal biotinylated (human, C-terminal biotin); assay: Luminex peptide beads
T21 construct: also called peptide 3 C-term
T21 peptide: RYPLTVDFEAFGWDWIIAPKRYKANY
Description: as §1

[22] = target: T22, hGDF8 peptide 13 (75-105), N-terminal biotinylated (human, N-terminal biotin); assay: Luminex peptide beads
T22 construct: also called peptide 13 N-term
T22 peptide: T3 peptide
Description: as §1

[23] = target: T23, hGDF8 peptide 4 (48-65), unmodified (human); assay: Luminex peptide beads
T23 peptide: EFVFLQKYPHTHLVHQAN
Description: as §1

[24] = target: T24, hGDF8 peptide 6 (48-72), unmodified (human); assay: Luminex peptide beads
T24 construct: also called peptide fragment 48-72 amino acids
T24 peptide: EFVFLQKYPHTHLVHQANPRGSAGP
Description: as §1

[25] = target: T25, hGDF8 peptide 6 (48-72), N-terminal biotinylated (human, N-terminal biotin); assay: Luminex peptide beads
T25 construct: also called peptide 6 N-term
T25 peptide: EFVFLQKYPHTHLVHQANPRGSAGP
Description: as §1

[26] = target: T26, hGDF8 peptide 1 (1-14), unmodified (human); assay: Luminex peptide beads
T26 peptide: DFGLDCDEHSTESR
Description: as §1

[27] = target: T27, hGDF8 peptide 7 (52-65), C-terminal biotinylated (human); assay: Luminex peptide beads
T27 construct: also called peptide 7 C-term
T27 peptide: LQKYPHTHLVHQAN-biotin
Description: as §1

[28] = target: T28, hGDF8 peptide 10 (56-72), C-terminal biotinylated (human); assay: Luminex peptide beads
T28 construct: also called peptide 10 C-term
T28 peptide: PHTHLVHQANPRGSAGP-biotin
Description: as §1

[29] = target: T29, hGDF8 peptide 2 (1-18), N-terminal biotinylated (human, cysteine pairing not given here); assay: Luminex peptide beads
T29 construct: also called peptide 2 N-term
T29 peptide: Biotin-DFGLDCDEHSTESRCCRY
Description: as §1

[30] = target: T30, hGDF8 peptide 14 (91-105), unmodified (human); assay: Luminex peptide beads
T30 peptide: EQIIYGKIPAMVVDR
Description: as §1

[31] = target: T31, hGDF8 peptide 1 (1-14), N-terminal biotinylated (human); assay: Luminex peptide beads
T31 construct: also called peptide 1 N-term
T31 peptide: Biotin-DFGLDCDEHSTESR
Description: as §1

[32] = target: T32, hGDF11 homodimer (human, UniProt O95390 299-407); assay: GDF11-inducible luciferase bioassay, 0.4 nM GDF11 (legend: NB=no binding)
T32 sequence (looked up): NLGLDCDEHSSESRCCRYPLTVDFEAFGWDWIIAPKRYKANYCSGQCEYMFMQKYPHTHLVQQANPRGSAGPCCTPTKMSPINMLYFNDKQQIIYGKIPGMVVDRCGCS

- binding result [1]: no binding (tested: 2.5 µg/ml)
- binding result [2]: no binding (tested: 2.5 µg/ml)
- binding result [3]: no binding (tested: 2.5 µg/ml)
- binding result [4]: no binding (tested: 2.5 µg/ml)
- binding result [5]: no binding (tested: 2.5 µg/ml)
- binding result [6]: no binding (tested: 2.5 µg/ml)
- binding result [7]: no binding (tested: 2.5 µg/ml)
- binding result [8]: no binding (tested: 2.5 µg/ml)
- binding result [9]: no binding (tested: 2.5 µg/ml)
- binding result [10]: no binding (tested: 2.5 µg/ml)
- binding result [11]: no binding (tested: 2.5 µg/ml)
- binding result [12]: no binding (tested: 2.5 µg/ml)
- binding result [13]: no binding (tested: 2.5 µg/ml)
- binding result [14]: no binding (tested: 2.5 µg/ml)
- binding result [15]: no binding (tested: 2.5 µg/ml)
- binding result [16]: no binding (tested: 2.5 µg/ml)
- binding result [17]: no binding (tested: 2.5 µg/ml)
- binding result [18]: no binding (tested: 2.5 µg/ml)
- binding result [19]: no binding (tested: 2.5 µg/ml)
- binding result [20]: no binding (tested: 2.5 µg/ml)
- binding result [21]: no binding (tested: 2.5 µg/ml)
- binding result [22]: no binding (tested: 2.5 µg/ml)
- binding result [23]: no binding (tested: 2.5 µg/ml)
- binding result [24]: no binding (tested: 2.5 µg/ml)
- binding result [25]: no binding (tested: 2.5 µg/ml)
- binding result [26]: no binding (tested: 2.5 µg/ml)
- binding result [27]: no binding (tested: 2.5 µg/ml)
- binding result [28]: no binding (tested: 2.5 µg/ml)
- binding result [29]: no binding (tested: 2.5 µg/ml)
- binding result [30]: no binding (tested: 2.5 µg/ml)
- binding result [31]: no binding (tested: 2.5 µg/ml)
- binding result [32]: no binding
B1: H4H1657N2 (antibody, V domains shown)
VH: EVQVLESGGDLVQPGGSLRLSCAASGFTFSAYAMTWVRQAPGKGLEWVSAISGSGGSAYYADSVKGRFTISRDNSKNTVYLQMNSLRAEDTAVYYCAKDGAWKMSGLDVWGQGTTVIVSS
VL: DIQMTQSPASLSASVGDRVTITCRASQDISDYLAWYQQKPGKIPRLLIYTTSTLQSGVPSRFRGSGSGTDFTLTISSLQPEDVATYYCQKYDSAPLTFGGGTKVEIK
notes: captured by anti-hFc, so human Fc
